Assay results taken from patent publication US20250313626A1 (HARBOUR BIOMED SHANGHAI, published 2025).
Residue numbers refer to the chain shown, from its start. Where two headings read alike, the source gives them in different places.

B1: PR006480 (antibody, human IgG1, kappa, L234A L235A)
heavy: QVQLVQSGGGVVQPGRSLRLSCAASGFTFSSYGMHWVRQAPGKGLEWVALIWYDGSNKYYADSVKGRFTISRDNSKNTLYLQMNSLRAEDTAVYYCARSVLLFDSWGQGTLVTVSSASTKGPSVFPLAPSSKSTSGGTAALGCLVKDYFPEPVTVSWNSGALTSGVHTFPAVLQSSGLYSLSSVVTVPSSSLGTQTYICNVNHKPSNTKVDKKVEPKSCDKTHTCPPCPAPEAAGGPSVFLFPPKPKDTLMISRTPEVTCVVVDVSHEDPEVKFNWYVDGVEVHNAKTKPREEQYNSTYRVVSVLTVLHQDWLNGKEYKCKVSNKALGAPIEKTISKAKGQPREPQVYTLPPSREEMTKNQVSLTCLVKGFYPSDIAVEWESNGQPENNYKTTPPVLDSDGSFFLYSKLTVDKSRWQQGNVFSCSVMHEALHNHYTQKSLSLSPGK
light: DIQMTQSPPSLSASVGDRVTITCRASQSISSYLNWFQQKAGKAPKLLISATSNLQSGVPSRFSGSGSGTDFTLTISSLQPEDLATYYCQQSYSSPYTFGQGTKVEIKRTVAAPSVFIFPPSDEQLKSGTASVVCLLNNFYPREAKVQWKVDNALQSGNSQESVTEQDSKDSTYSLSSTLTLSKADYEKHKVYACEVTHQGLSSPVTKSFNRGEC
notes: also called PR6480
B2: PR007223 (antibody, human IgG1, kappa)
heavy: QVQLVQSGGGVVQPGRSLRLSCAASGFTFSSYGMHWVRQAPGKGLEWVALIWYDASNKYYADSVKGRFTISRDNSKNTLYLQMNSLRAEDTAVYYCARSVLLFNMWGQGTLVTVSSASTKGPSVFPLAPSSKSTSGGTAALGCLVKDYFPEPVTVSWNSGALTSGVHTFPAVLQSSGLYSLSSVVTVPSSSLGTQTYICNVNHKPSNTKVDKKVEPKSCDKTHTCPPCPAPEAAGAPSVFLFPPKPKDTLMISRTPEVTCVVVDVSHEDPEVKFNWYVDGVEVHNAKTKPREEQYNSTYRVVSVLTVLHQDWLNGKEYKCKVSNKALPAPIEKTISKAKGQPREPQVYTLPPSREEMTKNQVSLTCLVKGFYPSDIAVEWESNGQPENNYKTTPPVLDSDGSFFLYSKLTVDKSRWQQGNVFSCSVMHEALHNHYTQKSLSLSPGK
light: B1 light with M4L, S91T
notes: PTM variant of PR006895 (human IgG1)
B3: PR007221 (antibody, human IgG1, kappa)
heavy: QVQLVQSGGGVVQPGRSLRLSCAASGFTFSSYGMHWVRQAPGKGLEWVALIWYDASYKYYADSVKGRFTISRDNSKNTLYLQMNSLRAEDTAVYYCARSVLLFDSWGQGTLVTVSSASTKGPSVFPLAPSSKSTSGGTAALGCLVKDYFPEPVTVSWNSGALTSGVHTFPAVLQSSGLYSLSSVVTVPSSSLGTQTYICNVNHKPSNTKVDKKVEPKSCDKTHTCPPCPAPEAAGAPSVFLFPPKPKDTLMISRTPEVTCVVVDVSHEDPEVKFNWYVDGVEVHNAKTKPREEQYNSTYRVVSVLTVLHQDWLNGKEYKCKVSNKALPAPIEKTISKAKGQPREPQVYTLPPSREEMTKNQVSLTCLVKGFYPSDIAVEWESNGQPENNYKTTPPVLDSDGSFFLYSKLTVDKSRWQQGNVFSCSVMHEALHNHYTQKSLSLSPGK
light: B1 light with M4L, S91T, Y92L
notes: as for B2
B4: PR002906 (antibody, V domains shown)
VH: QVQLQESGPGLVKPSETLSLTCTVSGYTITSGYDWSWIRQPPGKGLEWIGYINYGGSTNYKPSLGSRVTISVDTSKNQFSLKLSSVTAADTAVYYCARYNEYKSYIYDWYFDFWGQGTLVTVSS
VL: DIQMTQSPSSLSASVGDRVTITCKASKNIRSYLAWYQQKPGKAPKLLIYSGSTLHSGVPSRFSGSGSGTDFTLTISSLQPEDFATYYCQQHHEYPLTFGQGTKVEIKR
notes: also called recombinant IgG1 antibody of huDX182
B5: PR005509 (antibody, human IgG1, kappa, L234A L235A, V domains shown)
VH: QVQLVESGGGVVQPGRSLRLSCAASGFTFSSYGFHWVRQAPGKGLEWLGLIWSDGSNKYYADSVKGRFTISRDNSKNTLYLQMNSLRAEDTAVYYCARDRIVGAGFDYWGQGTLVTVSS
VL: not shown
B6: PR005474 (antibody, human IgG1, kappa, L234A L235A, V domains shown)
VH: B5 VH with G26A, F34M, L48V, G49A, S53N, Y59F, Y80F, V102L
VL: not shown
B7: PR007973 (antibody, human IgG1, kappa, V domains shown)
VH: B5 VH with L50I, G55A, A104E
VL: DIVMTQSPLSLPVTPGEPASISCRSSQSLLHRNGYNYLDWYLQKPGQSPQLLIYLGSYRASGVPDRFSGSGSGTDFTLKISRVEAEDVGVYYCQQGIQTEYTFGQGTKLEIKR
notes: PTM variant of PR006839 (human IgG1)

Experiments:
[1] = molecular target: T1, CD200R1a on PathHunter Jurkat CD200R1a signaling cells (Eurofins DiscoverX, 93-1136C19) (human, UniProt Q8TD46 25-348); experiment: cell-based or functional assay
T1 sequence: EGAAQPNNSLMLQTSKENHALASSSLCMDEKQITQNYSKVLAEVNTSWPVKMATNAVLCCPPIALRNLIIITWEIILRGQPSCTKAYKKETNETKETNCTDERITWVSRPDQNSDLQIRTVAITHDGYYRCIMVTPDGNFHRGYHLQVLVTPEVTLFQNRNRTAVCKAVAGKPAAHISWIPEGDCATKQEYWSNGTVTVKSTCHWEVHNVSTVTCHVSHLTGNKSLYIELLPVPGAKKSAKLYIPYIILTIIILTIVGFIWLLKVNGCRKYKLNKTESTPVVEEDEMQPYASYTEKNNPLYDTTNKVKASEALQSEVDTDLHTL

[2] = molecular target: T2, Cynomolgus macaques CD200R1 isoform a on CHOK1 cells (CHOK1/cynoCD200R1a) (Cynomolgus macaques); experiment: flow cytometry, CHOK1/cynoCD200R1a cells (APC-A Mean); table beside the curves
T2 chain: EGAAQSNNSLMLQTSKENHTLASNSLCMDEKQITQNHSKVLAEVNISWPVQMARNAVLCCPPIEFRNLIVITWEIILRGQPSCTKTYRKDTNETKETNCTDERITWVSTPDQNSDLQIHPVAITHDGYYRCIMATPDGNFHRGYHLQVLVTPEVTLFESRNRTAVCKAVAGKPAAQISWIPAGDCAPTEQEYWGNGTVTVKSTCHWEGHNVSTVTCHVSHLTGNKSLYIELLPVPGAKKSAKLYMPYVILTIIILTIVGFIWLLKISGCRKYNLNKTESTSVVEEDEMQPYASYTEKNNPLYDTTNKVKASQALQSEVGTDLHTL

[3] = molecular target: T3, human CD200R1 isoform a on CHOK1 cells (CHOK1/hCD200R1a) (human, UniProt Q8TD46 25-348); experiment: flow cytometry, CHOK1/hCD200R1a cells; table beside the curves, head without unit, x axis Log [Ab] (nM)
T3 construct: also called CHOK1/CD200R1a
T3 sequence: T1 sequence
Description: (§1) This example is intended to investigate the in vitro binding activity of human anti-CD200R1 monoclonal antibodies to human/Cynomolgus macaques CD200R1a expressed on the surface of cells. The anti-CD200R1 antibodies were produced as described in Example 3.4 and the binding experiments at the cell level were performed using CHOK1/hCD200R1a and CHOK1-cynoCD200R1a.
(§2) Briefly, CHOK1/hCD200R1a cells and CHOK1-cynoCD200R1a cells were digested, and collected, and then were resuspended in PBS containing 2% BSA, respectively. The cell density was adjusted to 1×10⁶ cells/mL. The cells were seeded in a 96-well V-bottom plate (Corning, #3894) at 100 μL/well, followed by the addition of test antibodies and reference antibodies in a series diluted concentration, each at 100 μL/well. The cells were incubated away from light at 4° C. for 1 h. Thereafter, the cells in each well were rinsed twice with 100 μL of pre-cooled PBS containing 2% BSA, and centrifuged at 500 g at 4° C. for 5 min, and then the supernatant was discarded. 100 μL of fluorescent secondary antibody (Alexa Fluor 488-conjugated AffiniPure Goat Anti-Human IgG, Fcγ Fragment Specific, Jackson, #109-545-098, diluted in a 1:1000 ratio) was added in each well, and the plate was incubated away from light at 4° C. for 1 h. The cells in each well were rinsed twice with 100 μL of pre-cooled PBS containing 2% BSA, and centrifuged at 500 g at 4° C. for 5 min, and then the supernatant was discarded. Finally, the cells in each well were resuspended in 200 μL of pre-cooled PBS containing 2% BSA, and the fluorescence signal values were read using a BD CantoII flow cytometer.

[4] = molecular target: T4, human CD200R1a protein (soluble recombinant) (human, UniProt Q8TD46 29-265); experiment: BLI in-tandem competition on His-captured human CD200R1a; row = 1st Ab (400 nM); competitor (2nd Ab) PR006207
T4 construct: Soluble protein used in BLI; also called human CD200R1 isoform a; not shown: His tag implied by capture on anti-Penta-HIS biosensors
T4 sequence: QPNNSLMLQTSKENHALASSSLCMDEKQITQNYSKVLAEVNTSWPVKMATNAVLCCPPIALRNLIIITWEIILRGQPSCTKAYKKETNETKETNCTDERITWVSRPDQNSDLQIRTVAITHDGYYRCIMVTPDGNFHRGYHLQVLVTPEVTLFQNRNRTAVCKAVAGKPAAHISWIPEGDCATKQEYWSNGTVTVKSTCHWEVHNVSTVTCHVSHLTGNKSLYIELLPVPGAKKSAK
Description: To determine if the anti-CD200R1 antibodies bind to human CD200R1a on different or approximate binding epitopes, epitope competition experiments for the anti-CD200R1 antibodies were performed by the ForteBlio Octet® RED96e platform. […] The in-tandem competition assay format was applied, and it contained two association steps. Firstly, the antigen-loaded biosensors bound to each antibody (i.e., First antibody, 1st Ab) at a saturating concentration of 400 nM for 300 seconds to reach equilibrium and then secondly bound to the competing antibodies (i.e., Second antibody, 2nd Ab) of 400 nM for 300 seconds. The second binding signals are recorded as the 100% signal of each antibody when the first antibodies are replaced by kinetic buffer. All the binding data were analyzed using ForteBlio Data Analysis 11.0 software. The inhibition rate was calculated by the following formula: […]

[5] = molecular target: T2, Cynomolgus macaques CD200R1 isoform a …; experiment: flow cytometry, CHOK1/cynoCD200R1a cells (APC-A Mean); table beside the curves
[6] = molecular target: T3, human CD200R1 isoform a on CHOK1 cells …; experiment: flow cytometry, CHOK1/hCD200R1a cells (FITC-Mean); table beside the curves, head without unit, x axis Log [Ab] (nM)
[7] = molecular target: T2, Cynomolgus macaques CD200R1 isoform a …; experiment: flow cytometry, CHOK1/cynoCD200R1a cells; table beside the curves
Description: as §1
as §2, with “100 μL of fluorescent secondary antibody (Alexa Fluor 488-conjugated AffiniPure Goat Anti-Human IgG, Fcγ Fragment Specific, Jackson, #109-545-098, diluted in a 1:1000 ratio) was added in each well, and the plate was incubated away from light at 4° C. for 1 h. The cells in each well were rinsed twice with 100 μL of pre-cooled PBS containing 2% BSA, and centrifuged at 500 g at 4° C. for 5 min, and then the supernatant was discarded.” left out

[8] = molecular target: T3, human CD200R1 isoform a on CHOK1 cells …; experiment: flow cytometry, CHOK1/hCD200R1a cells; table beside the curves
Description: as §1
as §2, with “100 μL of fluorescent secondary antibody (Alexa Fluor 488-conjugated AffiniPure Goat Anti-Human IgG, Fcγ Fragment Specific, Jackson, #109-545-098, diluted in a 1:1000 ratio) was added in each well, and the plate was incubated away from light at 4° C. for 1 h. The cells in each well were rinsed twice with 100 μL of pre-cooled PBS containing 2% BSA, and centrifuged at 500 g at 4° C. for 5 min, and then the supernatant was discarded.” left out

Binder | IC50 of the inhibition of CD200-induced PathHunter Jurkat CD200R1a luminescence (CHOK1/hCD200 cells as CD200 source) [1] | EC50 [2] | MFI (MAX) [2] | EC50 [3] | Inhibition ratio (%) [4] | EC50 [5] | MFI (MAX) [5] | EC50 [6] | MFI(Max) [7] | MFI(Max) [8]
B1 | 0.654 nM | 19.5 nM | 34600 | 33 nM | – | – | – | – | – | –
B2 | 0.578 nM | 8.11 nM | 54200 | – | -50.2% | – | – | – | – | –
B3 | – | 7.37 nM | 53300 | – | -40.7% | – | – | – | – | –
B4 | – | 21.4 nM | 26800 | 14.8 nM | – | 16.4 nM | 23900 | 0.436 nM | 6440 | 131000
B5 | – | – | – | – | – | – | – | – | 19900 | 101000
B6 | – | – | – | 9.36 nM | – | – | – | – | – | –
B7 | – | – | – | – | -44.7% | 3.78 nM | 62500 | 0.339 nM | – | –
